{"source": "FireProtDB (doi:10.1002/pro.5560030904)", "proteins": {"B1": {"name": "Fructose-bisphosphate aldolase A wild type, P00883 (protein)", "chain": "MPHSHPALTPEQKKELSDIAHRIVAPGKGILAADESTGSIAKRLQSIGTENTEENRRFYRQLLLTADDRVNPCIGGVILFHETLYQKADDGRPFPQVIKSKGGVVGIKVDKGVVPLAGTNGETTTQGLDGLSERCAQYKKDGADFAKWRCVLKIGEHTPSALAIMENANVLARYASICQQNGIVPIVEPEILPDGDHDLKRCQYVTEKVLAAVYKALSDHHIYLEGTLLKPNMVTPGHACTQKYSHEEIAMATVTALRRTVPPAVTGVTFLSGGQSEEEASINLNAINKCPLLKPWALTFSYGRALQASALKAWGGKKENLKAAQEEYVKRALANSLACQGKYTPSGQAGAAASESLFISNHAY"}}, "conditions": "Oryctolagus cuniculus; pH 7.4; Thermal; DSC; sodium phosphate 10 mM; transition: 4; reversible: yes; whole UniProt chain shown", "note": "Values joined by “and” are separate entries in the source; they are usually repeats but may differ in a detail not shown here. Equal values may be shown once."}
{"protein": "B1", "values": [{"measurement": "unfolding enthalpy (calorimetric)", "result": "61 kcal/mol and 34 kcal/mol"}]}
